B1: Arabidopsis thaliana cryptochrome 2 (CRY2, UniProt Q96524), residues 1-535 fused after the Gal4 DNA-binding domain (Gal4BD-CRY2(535)); mutagenized window 321-412, Q96524 (parent)
chain: MKMDKKTIVWFRRDLRIEDNPALAAAAHEGSVFPVFIWCPEEEGQFYPGRASRWWMKQSLAHLSQSLKALGSDLTLIKTHNTISAILDCIRVTGATKVVFNHLYDPVSLVRDHTVKEKLVERGISVQSYNGDLLYEPWEIYCEKGKPFTSFNSYWKKCLDMSIESVMLPPPWRLMPITAAAEAIWACSIEELGLENEAEKPSNALLTRAWSPGWSNADKLLNEFIEKQLIDYAKNSKKVVGNSTSLLSPYLHFGEISVRHVFQCARMKQIIWARDKNSEGEESADLFLRGIGLREYSRYICFNFPFTHEQSLLSHLRFFPWDADVDKFKAWRQGRTGYPLVDAGMRELWATGWMHNRIRVIVSSFAVKFLLLPWKWGMKYFWDTLLDADLECDILGWQYISGSIPDGHELDRLDNPALQGAKYDPEGEYIRQWLPELARLPTEWIHHPWDAPLTVLKASGVELGTNYAKPIVDIDTARELLAKAISRTREAQIMIGAAPDEIVADSFEALGANTIKEPGLCPSVSSNDQQVPSAV

Variants of B1 are the subject of this experiment. As to the kind of experiment: yeast two-hybrid growth selection (MaV203; Gal4BD-CRY2(1-535) library x Gal4AD-CIB1; URA3 reporter on SC -Trp/-Leu/-Ura) in the dark, deep sequencing before and after selection, Enrich2 scoring; three independent screens (one at 48 h, two …). As to conditions: with CIB1 (CRYPTOCHROME-INTERACTING BASIC-HELIX-LOOP-HELIX 1), dark (no blue light), screens 1, 3 and 4, Svar > 0 = enriched under dark selection for CRY2-CIB1 two-hybrid growth (URA3 reporter), < 0 = depleted, relative to wild type (whose scores are 0). 'The Enrich2 software calculates, parent: 0, not an affinity, scale: Enrich2 score, numbering: uniprot, sequence starts at 1.
As for D383A, the enrichment is -0.952.

As to D383V, the enrichment was -0.206. For D383G, the enrichment was -0.813. Regarding D383Y, the enrichment is -0.379. Regarding D383E, the enrichment was -0.349. Take D383N: the enrichment is -0.384.

Consider R357I, for which the enrichment was -0.511. On to R357G, for which the enrichment is 2.16. For the variant R357S, the enrichment was 2.1.

In the case of R357K, the enrichment was 0.845. On to L386F, for which the enrichment is -0.324. As for L386M, the enrichment was 0.0161. Regarding L386S, the enrichment is -0.716. Next, L386W: -0.68. In the case of M345V, the enrichment was -1.49. As to M345T, the enrichment is -1.83.

In the case of M345I, the enrichment is -0.745.

For the variant M345L, the enrichment is -0.395. With M345K, the enrichment was -1.43. For W353C, the enrichment is -0.321.

As to W353L, the enrichment was -0.339. Take W353S: the enrichment was -0.64. Consider W353R, for which the enrichment was -1.15. For W353G, the enrichment was -0.0561.

With L340S, the enrichment was -1.47. For L340M, the enrichment was 0.444. L340F: the enrichment is -1.05. As to L340W, the enrichment was -1.48. On to L410R, for which the enrichment was 1.71. In the case of G402R, the enrichment is 1.69. As to G402V, the enrichment is -0.0472.

G402W: the enrichment was -0.485.

With G402E, the enrichment is 0.772. On to D393Y, for which the enrichment is -0.612. As for D393V, the enrichment is 0.508. The value for D393S was 2.65. Take D393A: the enrichment was 1.64. Take D393N: the enrichment is 1.16. On to D393E, for which the enrichment was 1.18. For Q398K, the enrichment was 2.11.

For the variant Q398H, the enrichment is 1.96. Q398W: the enrichment is 1.99. For the variant T351P, the enrichment is -0.191. Next, T351S: -0.0139; T351N: -0.315; A330S: -0.0962. The value for A330P was -1.93; that for A330G was -2.23. Take A330T: the enrichment is -0.56. For the variant A330D, the enrichment is -0.577. On to W376C, for which the enrichment was -0.498. For the variant W376S, the enrichment was -1.68. Next, W376G: -0.7; W376L: 0.0656; W376R: -1.3. For V325F, the enrichment is -0.532.

V325D: the enrichment was -1.89. On to V325I, for which the enrichment is -0.344. V325G: the enrichment is 0.408.

Regarding L390M, the enrichment is -0.808. The value for L390S was -1.09.

In the case of L390V, the enrichment is 0.548. With K379R, the enrichment is 0.0968. The value for K379M was -1.02; that for K379Q was -0.304; that for K379T was 0.481. The value for K379A was 1.5. On to K379N, for which the enrichment was -0.188.

For the variant D387H, the enrichment is -0.974. Next, D387E: -1.15. Next, D387Y: -0.867; D387N: -0.788; D387V: -0.792. Turning to D387A, the enrichment is -0.921.

For V367G, the enrichment was -0.377.

On to V367M, for which the enrichment is 1.21. For S401P, the enrichment was -0.107. Regarding S401L, the enrichment is 2.46. For L348R, the enrichment was -1.14. In the case of L348H, the enrichment was -1.52. In the case of L348P, the enrichment is -1.54.

Regarding L348F, the enrichment was 2.98. With F381Y, the enrichment is 0.399.

With F381I, the enrichment was -0.4. Consider F381T, for which the enrichment is 1.8. F381L: the enrichment is 1.1. Regarding F381S, the enrichment was -1.2. As for G352E, the enrichment was -0.327.

As to G352A, the enrichment is -1.47. Next, G352R: -0.844; K375T: -0.845; K375E: 2.2. Next, K375V: 1.44; K375I: 0.307; K375S: 0.796. With K375Q, the enrichment is 0.228. As to K375R, the enrichment was -0.0254. Y380C: the enrichment is -0.0376. Regarding Y380H, the enrichment was -0.297.

For the variant Y380D, the enrichment is -0.763. Next, Y380S: -0.827; R335K: 0.204; R335T: 1.74.

Turning to R335G, the enrichment was -1.19. The value for R335S was -0.537.

Take C392W: the enrichment is -0.824.

Consider C392R, for which the enrichment was -1.14. For the variant C392S, the enrichment is -0.465.

Take C392Y: the enrichment was -1.08.

F369C: the enrichment was 0.578.

Consider F369L, for which the enrichment is 0.468. Turning to F369S, the enrichment is -0.00513. In the case of F369I, the enrichment is -0.158. With R346S, the enrichment is -1.36. With R346G, the enrichment is -1.54. On to A323S, for which the enrichment is 0.117. As for A323V, the enrichment is -0.61. The value for A323T was -0.65; that for W397L was -0.429; that for W397C was -0.144. As to W397R, the enrichment is -1.01. On to K329M, for which the enrichment is 0.675.

K329E: the enrichment is -0.264.

K329T: the enrichment is 0.41. V360L: the enrichment was 0.412. In the case of V360A, the enrichment is 0.0306.

Take Y399D: the enrichment was 1.99. As to Y399H, the enrichment was 1.23. Regarding Y399C, the enrichment was 1.43. For D324Y, the enrichment is 0.863. For D324A, the enrichment was 0.0228. Consider D324G, for which the enrichment is -0.17.

With W382L, the enrichment is -0.17. W382C: the enrichment was -0.025. Regarding W382G, the enrichment is 0.784. For K327M, the enrichment was -0.448. On to K327E, for which the enrichment was -1.63. On to K327T, for which the enrichment is -0.117. Regarding K327R, the enrichment was 0.118. As for K327Q, the enrichment is 0.397. For K327N, the enrichment is -0.0863. As to H355Q, the enrichment was -0.322. On to H355D, for which the enrichment is -1.37.

Regarding H355Y, the enrichment was -0.714. Take H355R: the enrichment is 0.547. As for I358K, the enrichment was -1.34. On to I358R, for which the enrichment is -0.0561.

Turning to I358V, the enrichment is 0.345. For the variant M378T, the enrichment is 2.32. As for M378K, the enrichment is 2.66. Next, M378L: -0.703; M378R: 2.81.

Take M378V: the enrichment is 0.308. M378A: the enrichment is 0.99. Consider I404F, for which the enrichment was 2.25. Next, I404V: -0.182; I404N: 1.51. As for I404S, the enrichment was 1.61.

In the case of I404A, the enrichment is 1.16.

As to P373L, the enrichment is -0.618.

For P373Q, the enrichment is -0.644. As to E409A, the enrichment is -0.172. In the case of E409D, the enrichment is 0.454. For E409G, the enrichment is 0.152. The value for E409V was 0.507; that for E409K was -0.366. Regarding E409T, the enrichment was 0.84.

The record behind these values is PMC12212125, “Constitutively active Arabidopsis cryptochrome two alleles identified using yeast selection and deep mutational scanning” (The Journal of Biological Chemistry, 2025).
